One test deals with chimera L. Nature of the test: Bio-Plex titration on His-captured chimera; bold cell = binding criterion not met.
For test [1], the target named is Human IL-17RA full-length expressed on the surface of cells (human) (UniProt Q96F46). Nature of the test: cell-based or functional assay.

B1: AMH26/AML26 (antibody, IgG2, V domains shown)
VH: QVQLVESGGGLVKPGGSLRLSCAASGFTFSDYYMSWIRQAPGKGLEWVSYISSSGSTIYYADSVKGRFTISRDNAKNSLYLQMNSLRAEDTAVYYCARDRTYYFGSGSYEGMDVWGQGTTVTVSS
VL: EILMTQSPATLSVSPGERATLSCRASQSVYSNLAWYQQKPGQAPRLLISGASTRATGIPARFSGSGSGTEFTLTISSLQSEDFAVYYCQQYYNWPWTFGQGTKVEIK
In the test with chimera L, B1 showed an EC50 as fitted, in a bold cell (binding criterion not met) of 6 pM.

B2: AMH23/AML23 (antibody, part only; not given: light variable domain, version unclear, V domains shown, part only)
VH: QVQLQESGPGLVKPSETLSLTCTVSGGSISSYYWSWIRQPAGKRLEWIGRIYPSGRTNYNPSLKSRVTMSVDTSKNQFSLKLSSVTAADTAVYYCAREAYELQLGLYYYYGMDVWGQGTPVTVSS
As to B2, in test [1], the % inhibition of IL-6 production, IL-17A/HFF bioassay, supernatant 19 (incl. AMH23), 1:4 dilution was 79%; the % inhibition of IL-6 production, IL-17A/HFF bioassay, supernatant 19 (incl. AMH23), 1:32 is 72%; the % inhibition of IL-6 production, repeat IL-17A/HFF bioassay, supernatant 19 (incl. AMH23), 1:4 is 86%; the % inhibition of IL-6 production, repeat IL-17A/HFF bioassay, supernatant 19 (incl. AMH23), 1:32 was 76%. In test [1], this molecule registered a % inhibition of IL-6 production, repeat IL-17A/HFF bioassay, supernatant 19 (incl. AMH23), 1:128 of 67% and a % inhibition of IL-6 production, repeat IL-17A/HFF bioassay, supernatant 19 (incl. AMH23), 1:512 of 50%.

Source of the values: US20120308566A1.
